# In US11466255B2, “Methods and compositions for converting non-endocrine pancreatic tissue into insulin-producing cells” (UNIVERSITY OF MIAMI, priority 2015, dated 2022):
# B1: BMP-7: 35 kDa homodimeric protein of the TGF-β superfamily; FDA-approved agent; human mature chain SEQ ID NO:1/2 (protein, listed as Homo sapiens)
# chain: IRSTGSKQRSQNRSKTPKNQEALRMANVAENSSSDQRQACKKHELYVSFRDLGWQDWIIAPEGYAAYYCEGECAFPLNSYMNATNHAIVQTLVHFINPETVPKPCCAPTQLNAISVLYFDDSSNVILKKYRNMVVRACGCH
# modifications: homodimer; human mature chain of BMP-7 (NCBI Reference Sequence NM_001719.2) comprising peptide from 293-431
# What was measured:
# [1] = system: stz-treated diabetic mice; experiment: Systemic BMP-7 in stz-treated diabetic CD1 mice; type: in vivo, mouse; conditions: BMP-7 500 μg/kg IP daily for 30 days, stz 200 mg/kg
# Protocol: Systemic BMP-7 (500 μg/kg) is administered to CD1 mice by means of intraperitoneal (IP) injection daily for 30 days. This dose is within the range reported for rodents in other BMP administration settings^18,67-69, and is refined in subsequent preclinical experiments. Acute diabetes is induced by a single injection of stz (200 mg/kg) prior to BMP-7 treatment. Controls receive saline by the same route. […] Similar doses^18 are effective at reversing kidney fibrosis. Ten animals/group are used. Half of the animals in each group receive BrdU in the water. Mice are euthanized 30 days after initiation of treatment, or earlier if diabetes reversal is observed. Glycemia is monitored daily at the same time, right before injection. IPGTTs and determination of PI/I ratios is done at 14 and 30 days. Upon euthanasia, the pancreas and other organs are harvested and analyzed by a pathologist to establish if there are tumorigenic or otherwise toxic effects associated with the treatment. The pancreas is also studied by IF in search of potential β-cell/endocrine cell neogenesis and/or signs of β-cell/endocrine cell proliferation (BrdU-treated animals) when compared to saline-treated controls. […] Relative quantification of β-cell/endocrine cell neogenesis are done using normalized total insulin quantification and the imaging techniques described in Example 4 and^17. […]
# ALK3+ cells from hNEPT = experiment: BMP-7 response of ALK3-enriched / ALK3+-sorted fraction; type: cell-based, human
# Protocol: (§1) Magnetic bead-based methods (Miltenyi) were used for the enrichment of ALK3+ cells from hNEPT. Both enriched and negative fractions are subsequently plated and treated with BMP-7 or left untreated (controls).
# (§2) The identity of sorted cells is confirmed by IF, and aliquots are cultured in adherent conditions. Single sorted pancreatic cells are notoriously difficult to culture in plastic, which is addressed by using a combination of Matrigel®-coated plates and fully defined media [STEMPRO® (Thermofisher Scientific, Grand Island, N.Y.) or Kubota's Medium® (PhoenixSongs Biologicals Branford, Conn.)]^8,29,48,49 Matrigel® is used to grow multipotent pancreatic cells^50,51. Colonies from dissociated ALK3^+ cells sorted from fresh hNEPT are readily grown in these conditions, and resemble those obtained from the MPD without sorting. The typical “ring” morphology described by others^50,51 is observed when plating ALK3^+ cells in 3D conditions or fibroblast feeder cells.
# stz-treated mice = conditions: systemic BMP-7; cited from earlier work
# hNEPT [2] = experiment: C-peptide content (ELISA, normalised to DNA) of hNEPT; type: cell-based, human; conditions: for induction of C-peptide compared to t=0: n=4, P=0.06
# Protocol: hNEPT culture: Human islets were isolated at the DRI's cGMP facility following methods already described54, and hNEPT samples (2-4 ml) were obtained as an isolation byproduct. The cells were washed and seeded on tissue culture-treated plates in FBS- and trypsin inhibitor-supplemented RPMI 1640 medium (Gibco-Life Technologies, Grand Island, N.Y.). After 48 h, floating cells were removed with fresh medium replacement. The following day, cultures were either treated with 100 ng/ml BMP-7 (ProSpec-Tany TechnoGene; Ness Ziona, Israel) or remained in the starting medium as controls. Cells were allowed to grow 4-5 days and then the serum-containing medium was replaced by serum-free Advanced RPMI 1640 (Gibco-Life Technologies, Grand Island, N.Y.). Four to five days later the cells were either subjected to static incubation to evaluate their ability to respond to changing glucose concentration or collected for further assessments (such as C-peptide content, immunohistochemistry or cellular composition) or transplantation.
# (§3) Glucose-stimulated insulin release (GSIR) and total insulin determination: GSIR was performed in six-well plate cultures. BMP-7-treated samples and untreated controls were washed twice with DMEM medium containing 2.5 mM glucose (Low glucose medium or L-medium). Upon addition of 2 ml of the same medium, the cells were cultured for 1 h at 37° C. to bring their insulin secretion to baseline. After 2 more washes, 1 ml of L-medium was added and the cells were returned to the incubator for 1 h. At the end of incubation period, the medium was collected and the cells exposed for 1 h to 1 ml of 20 mM glucose DMEM medium (high glucose medium or H-medium). After the collection of the H-medium supernatant, the cells were washed three times with L-medium and cultured again in low glucose conditions for 1 h. As before, supernatant was collected at the end of the incubation period. The second low glucose incubation is necessary to confirm that the cells are responding to glucose concentration changes in a physiological manner and not dumping insulin. After the last incubation, the cells were collected, washed in PBS and lysed with 1 ml of T-Per (Thermo Scientific, Rockford, Ill.). The lysates and the supernatants from GSIR test were evaluated with ELISA for C-peptide content (Mercodia, Uppsala, Sweden) following manufacturer's instructions. DNA content of the lysates was used to normalize the results (Pico-Green dsDNA Assay Kit, Life Technologies-Molecular Probes, Grand Island, N.Y.).
# [3] = reconstituted solution; cited from earlier work
# hNEPT [4] = experiment: Glucose-stimulated insulin secretion (GSIS) and perifusion; type: cell-based, human; conditions: day 12; 2.5 mM vs 20 mM glucose
# Protocol: as §3, with “After the last incubation, the cells were collected, washed in PBS and lysed with 1 ml of T-Per (Thermo Scientific, Rockford, Ill.).” left out, “DNA content of the lysates was used to normalize the results (Pico-Green dsDNA Assay Kit, Life Technologies-Molecular Probes, Grand Island, N.Y.).” left out
# Perifusion studies: Perifusion was performed as described58. […] Insulin release was determined with the Human Insulin ELISA Mercodia Kit (Uppsala, Sweden) following the manufacturer's instructions.
# ALK3- fraction of hNEPT = experiment: BMP-7 response of ALK3- fraction; type: cell-based, human; conditions: qRT-PCR
# Protocol: as §1, §2
molecule,measurement,setting,value
B1,glycemia vs. controls,[1],glycemic improvements
same,increase in insulin expression vs. non-BMP-7 treated controls,"ALK3+ cells from hNEPT; ALK3+-sorted cells, preliminary qRT-PCR",10^3 fold
same,response in terms of C-peptide production,"ALK3+ cells from hNEPT; magnetic bead ALK3-enriched fraction, only this fraction responds",BMP-7-responsive
same,effect on hyperglycemia of stz-treated mice,stz-treated mice,corrected the hyperglycemia
same,C-peptide production induction vs. t=0,"hNEPT [2]; BMP-4 vs BMP-7 comparison, n=6, P=0.43",156±32 fold
same,induction of C-peptide compared to t=0,"hNEPT [2]; BMP-7 alone, dorsomorphin experiment",314.1±152 fold
same,induction of C-peptide compared to t=0,hNEPT [2]; BMP-7 in the presence of dorsomorphin (DM),107.8±34.3 fold
same,C-peptide induction vs. t=0,"hNEPT [2]; THR-123 vs BMP-7 comparison, n=4, P=0.25",261±102 fold
same,average increase in total C-peptide vs. the initial material,"hNEPT [2]; day 12 vs day 0, 8 independent hNEPT preparations",two orders of magnitude
same,time reconstituted BMP-7 is active,[3],2 to 7 days
same,glucose responsiveness of induced clusters,hNEPT [4],glucose responsive
same,response to BMP-7,ALK3- fraction of hNEPT,did not show any response
